According to the Immune Epitope Database (IEDB):

Tests used:
[1] = molecular target: HLA-A*02:03; experiment: IEDB peptide-MHC binding, cellular MHC/competitive/fluorescence; ≥ and ≤ were set here for values at or beyond the usual limits of such assays
[2] = molecular target: HLA-A*02:02; experiment: IEDB peptide-MHC binding, purified MHC/competitive/radioactivity; ≥ and ≤ were set here for values at or beyond the usual limits of such assays
[3] = molecular target: HLA-A*02:06; experiment: as above
[4] = molecular target: HLA-A*68:02; experiment: as above
[5] = molecular target: HLA-A*02:01; experiment: as above
[6] = molecular target: HLA-A*02:01; experiment: IEDB peptide-MHC binding, cellular MHC/competitive/fluorescence; ≥ and ≤ were set here for values at or beyond the usual limits of such assays
[7] = molecular target: HLA-A*02:02; experiment: as above
[8] = molecular target: HLA-A*02:06; experiment: as above
[9] = molecular target: HLA-A*68:02; experiment: as above
[10] = molecular target: HLA-A*02:03; experiment: IEDB peptide-MHC binding, purified MHC/competitive/radioactivity; ≥ and ≤ were set here for values at or beyond the usual limits of such assays
[11] = source organism: Vaccinia virus WR
[12] = source organism: Mammarenavirus whitewaterense
[13] = source organism: Mammarenavirus lassaense
[14] = source organism: Mammarenavirus choriomeningitidis
[15] = source organism: Mammarenavirus guanaritoense
[16] = source organism: Mammarenavirus brazilense
[17] = source organism: Influenza A virus

| Sequence | IC50 [1, 11] [nM] | IC50 [2, 11] [nM] | IC50 [3, 11] [nM] | IC50 [4, 11] [nM] | IC50 [6, 11] [nM] | other results |
| --- | --- | --- | --- | --- | --- | --- |
| NAVTTNNLL | 24900 | 1860 | 202 | 4000 |  |  |
| FSAVISGSV |  |  |  |  |  | IC50 [1, 12]: 14100 nM; IC50 [5, 12]: 83 nM; IC50 [2, 12]: 48 nM; IC50 [3, 12]: 161 nM; IC50 [4, 12]: 2.6 nM |
| CNYSKYWYL |  |  |  |  |  | IC50 [6, 13]: 16300 nM; IC50 [1, 13]: 7130 nM; IC50 [2, 13]: 3660 nM; IC50 [3, 13]: 2710 nM; IC50 [4, 13]: 4190 nM |
| SVDIETAIRA | 7620 | 2830 | 1030 | 834 | 5140 |  |
| DIPTFNSLNT | 16600 | 2020 | 45 | 900 | 23000 |  |
| YCNYSKFWYL |  |  |  |  |  | IC50 [1, 14]: 9640 nM; IC50 [5, 14]: 1710 nM; IC50 [2, 14]: 1110 nM; IC50 [3, 14]: 1060 nM; IC50 [4, 14]: 925 nM |
| MVEYLENQL | 6460 | 343 | 3960 | 591 | 12000 |  |
| CVDHPFIYVI | 10800 | 964 | 1610 | 791 |  | IC50 [5, 11]: 2890 nM |
| WSAIFFTTSL |  |  |  |  |  | IC50 [6, 15]: 9090 nM; IC50 [1, 15]: 6990 nM; IC50 [2, 15]: 2000 nM; IC50 [3, 15]: 1410 nM; IC50 [4, 15]: 300 nM |
| LTHFNNNENV | 7270 | 907 | 996 | 11 | 6590 |  |
| MSPALFFTFL |  |  |  |  |  | IC50 [6, 16]: 6380 nM; IC50 [1, 16]: 7640 nM; IC50 [2, 16]: 547 nM; IC50 [3, 16]: 834 nM; IC50 [4, 16]: 102 nM |
| CTMERTNDLT | 16100 | 4050 | 1010 | 8.7 | 18600 |  |
| IAGGVCYYLL | 14600 | 4580 | 656 | 268 |  | IC50 [5, 11]: 174 nM |
| MSCDDVVFGI |  |  |  |  |  | IC50 [1, 14]: 12100 nM; IC50 [5, 14]: 1010 nM; IC50 [2, 14]: 1050 nM; IC50 [3, 14]: 250 nM; IC50 [4, 14]: 54 nM |
| VCFWSTLFYV |  |  |  |  |  | IC50 [1, 12]: 7020 nM; IC50 [5, 12]: 904 nM; IC50 [2, 12]: 349 nM; IC50 [3, 12]: 1130 nM; IC50 [4, 12]: 525 nM |
| FLVLIMLII |  |  |  |  |  | IC50 ([1]; source organism: SARS-CoV1): 9730 nM; IC50 ([5]; source organism: SARS-CoV1): 2300 nM; IC50 ([2]; source organism: SARS-CoV1): 1630 nM; IC50 ([3]; source organism: SARS-CoV1): 1350 nM; IC50 ([4]; source organism: SARS-CoV1): 2570 nM |
| YAVLSEYETM | 9630 | 157 | 1210 | 4160 | 5510 |  |
| ITVGMLIYSM | 6110 | 47 | 97 | 611 |  | IC50 [5, 11]: 167 nM |
| CAVIPFDDIV | 7420 | 2920 | 184 | 137 |  | IC50 [5, 11]: 1090 nM |
| DISSFYWSL | 6870 | 391 | 3970 | 28 | 8510 |  |
| IVSRSSRGV | 13200 | 264 | 476 | 1020 |  | IC50 [5, 11]: 1980 nM |
| YALEPRKEI | 7070 | 3700 | 4110 | 710 | 9810 |  |
| IASGQRCHFI | 8320 | 526 | 256 | 4220 | 18400 |  |
| CTNDIYCDEI | 5720 | 2460 | 4760 | 192 | 9060 |  |
| TTPLISFFGL | 17600 | 5000 | 3360 | 198 | 27300 |  |
| ALYYVHSLL | 15000 | 26 | 3260 | 598 |  | IC50 [5, 11]: 229 nM |
| SVDVDIYDA | 11900 | 1200 | 953 | 345 | 13300 |  |

| Sequence | IC50 [1, 11] [nM] | IC50 [2, 11] [nM] | IC50 [3, 11] [nM] | IC50 [4, 11] [nM] | IC50 [6, 11] [nM] | other results |
| --- | --- | --- | --- | --- | --- | --- |
| STVDVRNIVT | 11600 | 3060 | 1570 | 475 |  | IC50 [5, 11]: 3050 nM |
| YAVLSEYET | 35100 | 1780 | 1330 | 246 | 37200 |  |
| ETDDDGNYPL | 28200 | 3590 | 1160 | 27 |  | IC50 [5, 11]: 2170 nM |
| TNAEFTFQL |  |  |  |  |  | IC50 [6, 15]: 5020 nM; IC50 [1, 15]: 15100 nM; IC50 [2, 15]: 404 nM; IC50 [3, 15]: 3620 nM; IC50 [4, 15]: 5.3 nM |
| HTYHLENDKI | 13700 | 1790 | 1990 | 284 | 59000 |  |
| TIILNKIVQL | 49300 | 1760 | 30 | 2670 |  | IC50 [5, 11]: 86 nM |
| SNPNLFWAV |  |  |  |  |  | IC50 [1, 16]: 6160 nM; IC50 [5, 16]: 1460 nM; IC50 [2, 16]: 170 nM; IC50 [3, 16]: 35 nM; IC50 [4, 16]: 79 nM |
| TTTFITVLT | 8590 | 2460 | 1090 | 33 |  | IC50 [5, 11]: 2320 nM |
| RAMAWTVV |  |  |  |  |  | IC50 [6, 17]: 7600 nM; IC50 [7, 17]: 8180 nM; IC50 [8, 17]: 7780 nM; IC50 [9, 17]: ≥ 70000 nM; IC50 [10, 17]: 2420 nM |
| GIIITVGML |  |  |  |  | 6560 | IC50 [7, 11]: 8670 nM; IC50 [8, 11]: 18400 nM; IC50 [9, 11]: 19600 nM; IC50 [10, 11]: 349 nM |
| AMHDKKIDI |  |  |  |  | 8840 | IC50 [7, 11]: 17200 nM; IC50 [8, 11]: 42000 nM; IC50 [9, 11]: 8000 nM; IC50 [10, 11]: 1520 nM |
| IIELPYVGDT |  |  |  |  | 46800 | IC50 [7, 11]: 13700 nM; IC50 [8, 11]: 17000 nM; IC50 [9, 11]: ≥ 70000 nM; IC50 [10, 11]: 4420 nM |
| VTKRDESSI |  |  |  |  | ≥ 70000 | IC50 [7, 11]: 8050 nM; IC50 [8, 11]: 38100 nM; IC50 [9, 11]: 8100 nM; IC50 [10, 11]: 2140 nM |
| VIRNEVNDT |  |  |  |  | ≥ 70000 | IC50 [7, 11]: 19900 nM; IC50 [8, 11]: ≥ 70000 nM; IC50 [9, 11]: 28300 nM; IC50 [10, 11]: 820 nM |
| DIKYISRDEL | 9580 | 2550 | 2060 | 321 |  | IC50 [5, 11]: 3570 nM |
| ITNILGGVL |  |  |  |  | ≥ 70000 | IC50 [7, 11]: 7380 nM; IC50 [8, 11]: 32500 nM; IC50 [9, 11]: 9240 nM; IC50 [10, 11]: 2440 nM |
| IVNTTYDFLA | 8270 | 1250 | 956 | 991 |  | IC50 [5, 11]: 2390 nM |
| AIRGQYSGFV |  |  |  |  |  | IC50 [6, 17]: 12900 nM; IC50 [7, 17]: 6280 nM; IC50 [8, 17]: 42800 nM; IC50 [9, 17]: 18400 nM; IC50 [10, 17]: 92 nM |
| GILIYDDNI |  |  |  |  | 11300 | IC50 [7, 11]: 11700 nM; IC50 [8, 11]: 13300 nM; IC50 [9, 11]: 33500 nM; IC50 [10, 11]: 1700 nM |
| KNATWCLEV |  |  |  |  |  | IC50 [6, 16]: 12800 nM; IC50 [1, 16]: 7020 nM; IC50 [2, 16]: 1620 nM; IC50 [3, 16]: 2320 nM; IC50 [4, 16]: 1390 nM |
| LTSVDIETA | 11500 | 4920 | 311 | 1240 | 24000 |  |
| EQGDIALAL | 11100 | 701 | 4770 | 800 | 13000 |  |
| QVKDNIISRT |  |  |  |  | 40900 | IC50 [7, 11]: 17800 nM; IC50 [8, 11]: 34300 nM; IC50 [9, 11]: 24200 nM; IC50 [10, 11]: 421 nM |
| KTKISVEKI |  |  |  |  | 26900 | IC50 [7, 11]: 7600 nM; IC50 [8, 11]: 10700 nM; IC50 [9, 11]: ≥ 70000 nM; IC50 [10, 11]: 112 nM |
| YVVIVENDNV | 11000 | 2340 | 60 | 99 |  | IC50 [5, 11]: 547 nM |
| SICLDYIIV | 8650 | 1460 | 689 | 2930 |  | IC50 [5, 11]: 579 nM |
